Results on one molecule are retold here after patent US20240156869A1 (published 2024).

The test has as its target T1, HERV-E (CT-RCC8/9 by the listing's note) peptide on HLA-A*11 (human).
T1 peptide: ATFLGSLTWK
Nature of the test: cytokine release.

Protocol: To test whether A*11 expression conferred target recognition to these transduced cells, a co-culture experiment was performed. […] After 18 hours, the supernatant was collected and an ELSIA was performed on the supernatant for interferon-gamma (IFNγ).
To test whether A*02 expression conferred target recognition to these transduced cells, a co-culture experiment was performed. […] After 18 hours, the supernatant was collected, and an ELISA was performed on the supernatant for Interferon-gamma (IFNγ).

B1: HERV-E-TCR (TCR, V domains shown)
Valpha: GIQVEQSPPDLILQEGANSTLRCNFSDSVNNLQWFHQNPWGQLINLFYIPSGTKQNGRLSATTVATERYSLLYISSSQTTDSGVYFCAVRGGADGLTFGKGTHLIIQP
Vbeta: DTEVTQTPKHLVMGMTNKKSLKCEQHMGHRAMYWYKQKAKKPPELMFVYSYEKLSINESVPSRFSPECPNSSLLNLHLHALQPEDSALYLCASSPPNEKLFFGSGTQLSVL
In the case of B1, the binding result was “recognises”.
